Reference: the DeepSol protein solubility set

Experiment: soluble on expression in E. coli; label from the status in PepcDB or PDB records

Sequence	soluble on expression in E. coli
MNHQARMRWRCRRGMLELDIVLQRFIDNHYEQLDEHQLELFEMLLSLSDHDLWNIIIGNTKEPNNQFQPVLKLLQENLEHHHHHH	soluble
MNHTSDTALLIVNLGTPEAPTAAAVRRYLGEFLSDRRVVSIPPLFWKPLLHMVILPIRGPRSASKYAKVWLQEGSPLSVYTRRIAEGLTQHLPDWRVAWAMRYGAPALTKALDALQAQQVRRIVILPLYPQYSTTTTASVQDVVEAWCKRTPQVQVECIQDYAEDPAWVAAVAASIRRHWQAHGRSEKLMFSFHGLPQRVANNGDPYPQRCQV	not soluble
MNIAAESSAKPVWGPPNFCAAAARMQDVRVLMHPKTGRAFRSPVEPGSGWPGDPATPQTPVAADAAQVSALAGGAGSICELNALISVCRACPRLVSWREEVAVVKRRAFADQPYWGRPVPGWGSKRPRLLILGLAPAAHGANRTGRMFTGDRSGDQLYAALHRAGLVNSPVSVDAADGLRANRIRITAPVRCAPPGNSPTPAERLTCSPWLNAEWRLVSDHIRAIVALGGFAWQVALRLAGASGTPKPRFGHGVVTELGAGVRLLGCYHPSQQNMFTGRLTPTMLDDIFREAKKLAGIE	soluble
MNICMRNGYEQFSLTSPGTSDLEIGGSFWKDEPDTKYLCLDSPVEQRQHQPPMAVCAGCRLEISDRYFLRVNPNLEFHAQCLKCVQCSRPLDENQTAFVKNGQTYCRDDYRRLFTTRCSRCHGDFDKTDLVMRAGPQNVFHLNCFACVACEKRLQTGEEFQIKNNSLYCRSDCRGLDNPDTSASVPDYSKLNNNNNNDNNNSSSNFDEDEWDEERSTLTSLDNNTSSPLGSPKSDGVRTPLFGHHNSGSGGSTSSCGKKKKDKQATRVRTVLNENQLKILRDCYSINSRPDATLKERLVEMTGLSARVIRVWFQNKRCKDKKRQIQITENRLNSEREEVLNRVRVNGIGPLMVQPATPHIDNTLGGPIDIQHFAQWNGTPPPPPPQYGNPMMFNSPSTFDVSVILAPVAPNVTSPSEALGPLGASVFPHFSPQHAPFTATSHDISSPAPCGE	not soluble
MNIEQLSQSLEHMANQAATLDRQRGEHHVPLFDERLFSCRSRLLTPCVKEAKSTLDAIIREQNENKLTALRAEYLTERLVAQIGAIQREISTTKIRKNEIKHSSHFRKPINVLYQELAQHQEWARRLREMVLEKERAVETAPSFMRAEAQKVLLATEQRLARCEAALLKLENQITHREKHQ	soluble
MNIHEYQGKAVLRSYGVSVPNGKVAFTVEEAVEAAKELGTDVCVVKAQIHAGGRGKAGGVKVAKNLDEVRTYAESILGTTLVTHQTGPEGKEVKRLLIEEGCDIKKEYYVGLVLDRATSQVVLMASEEGGTEIEEVAEKTPEKIFKEYIDPAVGLQGFQARRIAFNINIPKELVGQAVKFMMGLYRAFIEKDCSIAEINPLVTTGDGKVMALDAKLNFDSNALYRHKDILELRDLDEEDAKEIEASKYDLNYIPLDGNIGCMVNGAGLAMATMDIIKHYHGDPANFLDVGGGATAEKVTEAFKIILSDKNVKGIFVNIFGGIMKCDVIAEGVIEATKQVGLELPLVVRLEGTNVELGKKILNESGLNIVAAESMTDGAQKIVSLVG	not soluble
MNILKHFPSYVGPSKIRTLVIPIGHWTRKEFNNAVQKLSEFNEIHLSDVTPIDSPIFTPQGFPHGKLFFDFLTIDHDDALELFLYDFEPFRKTFVIIGLVNDYSDPLTNLNFMKEKYPTLISPNLVYASSTPTKELEQTIDTMENVFASSPDMQKNIETIMCDIARNFLTALNSYYSSYKHVTLRSPGAIGGNAVLKTTLIRQNSYTSSSSSTPMSAVQSSVSSSSKAGSVTTASKRLSSFEMTTNSLKRSASLKLATTLSTSENRSQQKSLGRQMKILGNFQLLAGRYVDALNSFVDAITTLYKVRDYLWLGSALDGISICFLLLSYLGLSYQIPQIVSLICPVEKLNFESSSTGISPVDSNSKATASTTASSTPRNSISIAAMQSPRNSIMSLSAPALNIDVENINLPLLIKCISDKVLYYYDLSLMHNSEYAPQVVYCEFLLKTLTFMTSCYKSSEFSKDVLDNIVKNQHRALSDIPNSPMFPRFEVYFYSNKLFELQLKEMQVEAQIKIYSTMAEVYRLLGYKRKQLFVLRLLMVALLATPNKIAWHPDYRTLIDTIIELLNINESEAKINVDDPSQSTWLILQKKILQLCIKVSRKINDFEYVAKFSSILITKYTHLLNQSEQDALFKEYIQPSITNESITSYWDPFILREVVINRILDSDPTSNEIPLESDVSSLESLENRQKTQDINPQEVFNPFKRVQPTSFVSNNSTKVPILVFLVGDKAEFTCRVQNPFKFDFTINDIQLDEEISEFCEIDRKAVSYSGPYNVKAESIRSITLPLIIKKPTYKKIYEISCLKISILKLPLQKFDIINDSRRSNPVEEEAEYSKCIYGKLKIKILPEQPQLELLSTSKMTRNSWMMLDGTKTDFHITVRNKSLSCAINHIKIIPMNNIEQMLKPDYWKKMPPDDLYIMEKQLDWLSKSCVRIIKLPTVIKPNETITFDLELDNTAVPFNFTGFDLLIEYGMSATDESCIYLKKLSIPYEVTLRRTIEVPSMDIIPLNELFSSQVENVDWIEYVMSKIRAESNLHSRDFILLLLDFRNSWIDGIKLNVQFEDFTSNEYHVEASHTSRIIVPIKKIDYKKYNFENTPIPRIYPGRQFIQSGLNEEQTIEMRQKFWCREHIISKLKCNWKLTTDQSVTGSVDFNKFIEKFDHKMVYTIYPGRLFYGVQLLLDEPKVKVGEIINLKIITEPTSTCRRKQNSTVNFLDIVIFDSKTSKILPRSNRRILYNGSLTKPISTTKVSEINLEIIPIEKGRYEFSVCISKSNNQDGIIQFDSENVILSVI	soluble
MNILLFGKTGQVGWELQRSLAPVGNLIALDVHSKEFCGDFSNPKGVAETVRKLRPDVIVNAAAHTAVDKAESEPELAQLLNATSVEAIAKAANETGAWVVHYSTDYVFPGTGDIPWQETDATSPLNVYGKTKLAGEKALQDNCPKHLIFRTSWVYAGKGNNFAKTMLRLAKERQTLSVINDQYGAPTGAELLADCTAHAIRVALNKPEVAGLYHLVAGGTTTWHDYAALVFDEARKAGITLALTELNAVPTSAYPTPASRPGNSRLNTEKFQRNFDLILPQWELGVKRMLTEMFTTTTI	soluble
MNILQFNVRLAEGGAAGVALDLHLRALQKGLTSHFVYGYGKGGKKSVSHHRYPQVIKQTPRGTAIANIALFRFLNRDLFGNLDNLYRTVIQTSGPLVLHFHVLHSYWLNLADIVTFCEKVKAQKPDVTLVWTLHDHWSVTGRCAFTDGCEGWKSGCQKCPTLSNYPPVRVDRAHQLIDGKRQRFRDMLRLGCRFISPSQHVAEAFNSVYGAGRCQIINNGIDLATEAILAQLSPVPLNPGKPRIAIVAHDLRYDGKTDQRLVHDMMALGEKIELHTFGKFSPFTGQNVVNHGFETDKRKLMSALNEMDALVFSSRVDNYPLILCEALSIGVPVIATHSEAAQEVLAKSGGQTFAATDVLRLAQRRKPEIAQAVFGATLDAFRMRSRVAYSGQQMLEEYVSFYQNLLEHHHHHH	not soluble
MNILQFNVRLAEGGAAGVALDLHQRALQQGLASHFVYGYGKGGKESVSHQNYPQVIKHTPRMTAMANIALFRLFNRDLFGNFNELYRTITRTAGPVVLHFHVLHSYWLNLKSVVRFCEKVKNHKPDVTLVWTLHDHWSVTGRCAFTDGCEGWKTGCQKCPTLNNYPPVKIDRAHQLVAGKRQLFREMLALGCQFISPSQHVADAFNSLYGPGRCRIINNGIDMATEAILADLPPVRETQGKPKIAVVAHDLRYDGKTNQQLVREMMALGDKIELHTFGKFSPFTAGNVVNHGFETDKRKLMSALNQMDALVFSSRVDNYPLILCEALSIGVPVIATHSDAAREVLQKSGGKTVSEEEVLQLVQLSKPEIAQAIFGTTLAEFSQRSRAAYSGQQMLEEYVNFYQNL	soluble
MNILTLMETFSAVVEAGSFTGAAEKLGLSKSFVSKQVSTLEVELGCRLLYRTTRTLSLSDEGSQFYNHCKIIMAEAENARAEVMDRQGAPRGKIRMTIPQSLIISGFGQLLIDFQLQYPEIKLEVIASGRIEDLVKEGIDIALRVGQLEDSSLISRRLMDCTFQVVASSDYIKKWGEPFQPADLMQHNCLIYGDSKINKGWPFRSPSGESITVKAKGNFISNDGGLVVEGMLNGLGIGFGPSFLFNEHVEKGRLKLLLSDYYQPPTAISALYPLNRNLSRRIRLLIDYLSERLSV	not soluble
MNIQITFTDSVRQGTSAKGNPYTFQEGFLHLEDKPHPLQCQFFVESVIPAGSYQVPYRINVNNGRPELAFDFKAMKRA	soluble
MNIQKMYTAVDVHVNGEAFRVMKDVPCKYYYSLEQLNEQFSGELAEEMKLLLNEPRGFIGLNGCIVVPSIHNEVDAAVLFFNHEGSIPLHYGGIVAVITMLLESGYLKKRESNQYKIETLSGIFLVHAYVENDEVISVSFESKLCYLIEENLQVGNVSYSLIQADKVYAVVEKGAYSPEIRVENISELKRWGEATLQAIQKQSLIKRLILVDPSQKEKNHIKSITFHEDNFIVRSPGFVSTIVSYVHALFKNDYMADKPFKNESIFNSFITVEKVKKEELGYIFRFESRGFITGMQTFLLDPTDPFPAGFLLKLEHHHHHH	not soluble
MNIREPPDVVIFCELIYGAAITCLKKFFLRDVFKIFITSHKANIDLMDVVIKSFTDSTNSGKLSKAWAHAQNCHTNFYELKNMKKKLKQNILKSVSEMNNIIKKADIDMINNNLKPFLKQMEKLPTKKTVTIGNESFEYNKTASWYN	not soluble
MNISYIPEHIEQLTIMNVPEYYKINDNHAFIVRSKAETDFWLKTHYGFEVMNGHVFYNEMMTDFQAEVQLRMNPNSKFDQAGLFVMISENCWLKTSLEYIPEGPSHLGAVVTNNGYSDWSTQDYPTEAAKQQLRFRIIRKRGDYTIYVKKRHQWEQIRIAHLMEDIGNEPIKIGFYTCSPSKNKGFETEFLHFTIEELLEHHHHHH	soluble
MNITKIDWQKVNGLLPVIIQNISTREVLMLGYMNEEALTKTIKERKVTFFSRTKQRLWTKGEISGNFLNVEEMSLDCDNDTLLILVDPIGATCHTGEYSCFHQFTSPQSENKKQQFANWAWFIKLEQHLKEKKNADPSNSYTATLHAKGTKKIAQKVGEEGVETALAAVAQDKAEVISEATDLVYHLTVLLHNQDLQWYEIIAKLQERHQGIGLHPEGGNK	soluble
MNIYTDKKVVAVGGGHGLGRMLAALKDFGSNATGIVATTDNGGSTGRIRHCQGGIAWGDTRNCINQLITEPSISSMMFEYRFKGTGELDGHNLGNLMLTALDNLSVRPLDAINLIRNMLKVDVNILPMSEHPSDLSALSVNGQWVTGETNVDEMETDLRRLDLSPEVPATKEAVTALAEADAIILGPGSFLTSIMPPLLLPELGKAIAANRKAKVIFVANLSPEYGPAGRMSMAQKLEWCERACQGRRIDVVLAEETDQKVLEQWNVVTEPLASTNRDWRHDRDKLKAAIENQLLTKLEHHHHHH	soluble
MNKEITFDKLPEAVTYLTEQVSAIKEMVSALHPPVPEEKSLIGIDEACVIIQKAKPTIYALVRKGIVPAYKRGKKLYFYKEELLQWVESGRKGATTAISSEEQLAMMRQEVRRKPKSIK	not soluble
